In patent US20220195008A1 (US Dept. of Health and Human Services, published 2022):

B1: anti-MAGE-A12 TCR FM8 (TCR, V domains shown)
V domain 1: QTVTQSQPEMSVQEAETVTLSCTYDTSESDYYLFWYKQPPSRQMILVIRQEAYKQQNATENRFSVNFQKAAKSFSLKISDSQLGDAAMYFCAYRSAQGGSEKLVFGKGTKLTVNP
V domain 2: ETGVTQTPRHLVMGMTNKKSLKCEQHLGHNAMYWYKQSAKKPLELMFVYSLEERVENNSVPSRFSPECPNSSHLFLHLHTLQPEDSALYLCASSQTTYYNEQFFGPGTRLTVLE
B2: anti-MAGE-A3 TCR 13-18 (TCR, V domains shown)
V domain 1: QKEVEQDPGPLSVPEGAIVSLNCTYSNSAFQYFMWYRQYSRKGPELLMYTYSSGNKEDGRFTAQVDKSSKYISLFIRDSQPSDSATYLCAMRGAQKLVFGQGTRLTINP
V domain 2: DAMVIQNPRYQVTQFGKPVTLSCSQTLNHNVMYWYQQKSSQAPKLLFHYYDKDFNNEADTPDNFQSRRPNTSFCFLDIRSPGLGDAAMYLCATSWDRGYEQYFGPGTRLTVTE

Legend:
[1] = biological target: MAGE-A12:170-178 in the context of HLA-Cw7 (subtype not stated at that place) (human); experiment: cell-based or functional assay
[2] = biological target: MAGE-A3 168-176 peptide (…) in the context of HLA-A*01 (human); experiment: cell-based or functional assay

Binder	minimum peptide concentration for recognition, relative to TCR 502 [1]	minimum peptide concentration for recognition, relative to TCR A10 [2]
B1	100 fold (higher than for TCR 502)	–
B2	–	10 fold (higher than for TCR A10)
